Broadly, the Kd is a measure of binding affinity in units of concentration. Lower therefore signals a tighter complex.

Data set [1] deals with T1, human thrombin (Homo sapiens, UniProt P00734;P00734 328-363;364-622). Kind of data set: ITC; 25 C, binding buffer, 1 mM Mg2+; Binding Buffer: 50 mM Tris-HCl, 100 mM NaCl, 1 mM MgCl2, 1 M DTT (so in the source), pH not stated; ITC and CD at 25 C. For orientation: Isothermal titration calorimetry measures the heat released or taken up as one component is titrated into another.

Data set [2] has as its target T1, human thrombin. Kind of data set: CD; 0.5 uM thrombin, 5 uM DNA; no significant spectral change; Binding Buffer: 50 mM Tris-HCl, 100 mM NaCl, 1 mM MgCl2, 1 M DTT (so in the source), pH not stated; ITC and CD at 25 C.

B1: AS2-3 (61mer; identical to AS7-36 and AS7-83) (structured_DNA)
DNA: TACAGGCAGTAAGGCCGTGTCATCAGGATGGGCACTTTCCTAGGGCAGGTTAGCAACAGGA
In the data set with human thrombin [1], B1 registered a Kd of 3.36 µM.
In the case of TACAGGCAGTAAGGCCGTGTCATCAGGATGGGCACTTTCC (structured_DNA) [40mer AS2-3], the binding result with human thrombin [2] is listed as “no binding”.
